Assay results: patent publication US20230348614A1 (VISTERRA, published 2023)

T1: CD138 on the surface of U266 cells (CD138+ human lymphoblastic myeloma cell line) (human, UniProt P18827 23-310)
T1 construct: whole, on cells; also called cell surface CD138; membrane CD138
T1 sequence (looked up): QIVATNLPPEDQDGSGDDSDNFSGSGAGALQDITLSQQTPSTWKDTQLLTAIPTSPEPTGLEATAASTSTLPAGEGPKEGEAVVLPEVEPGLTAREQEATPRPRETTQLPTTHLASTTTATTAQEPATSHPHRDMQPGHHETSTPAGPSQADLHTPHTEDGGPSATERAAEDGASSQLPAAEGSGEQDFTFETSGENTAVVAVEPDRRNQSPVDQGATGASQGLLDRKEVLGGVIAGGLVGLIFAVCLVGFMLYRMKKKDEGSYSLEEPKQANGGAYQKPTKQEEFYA

T2: Biotinylated recombinant soluble human CD138 extracellular domain (Sino Biological, Cat. 11429-H08H) (human, UniProt P18827 18-251, biotin (EZ-Link NHS-SS-PEG4 Biotin) on primary amino groups of lysines, protein:biotin 1:20)
T2 construct: range 18-251; Bought reagent; The limits are printed as approximate; also called biotinylated CD138; recombinant CD138
T2 sequence (looked up): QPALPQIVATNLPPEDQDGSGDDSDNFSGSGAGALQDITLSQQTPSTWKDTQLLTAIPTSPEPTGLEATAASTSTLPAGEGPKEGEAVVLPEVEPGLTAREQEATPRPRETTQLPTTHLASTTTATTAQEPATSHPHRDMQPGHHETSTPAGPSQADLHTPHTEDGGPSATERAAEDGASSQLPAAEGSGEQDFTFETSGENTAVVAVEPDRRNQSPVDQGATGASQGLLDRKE

T3: Recombinant soluble human CD138 extracellular domain (analyte in SPR) (human, UniProt P18827 23-254)
T3 construct: extracellular domain; also called recombinant CD138 (the antigen)
T3 sequence (looked up): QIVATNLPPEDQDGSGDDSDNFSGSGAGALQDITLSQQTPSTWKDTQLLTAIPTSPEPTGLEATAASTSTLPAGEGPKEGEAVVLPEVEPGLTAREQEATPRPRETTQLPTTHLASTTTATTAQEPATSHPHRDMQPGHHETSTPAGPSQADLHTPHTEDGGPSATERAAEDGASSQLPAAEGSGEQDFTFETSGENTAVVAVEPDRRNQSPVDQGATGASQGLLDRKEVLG


Columns and labels:
[1] = target: T1, CD138 on the surface of U266 cells …; assay: flow cytometry on U266 cells at pH 6.0, MFI against antibody concentration (0.01-10 ug/mL)
Experimental: (§1) Antibody binding to membrane CD138 was evaluated using the CD138+ human lymphoblastic myeloma cell line (U266) and quantified by flow cytometry. Cells were grown in RPMI1640 with 10% FBS. […] Cells were washed (1X) with same pH-matched buffer (and as throughout the experiment) followed by incubation with secondary (detection) goat anti-human Fab( Jackson Immuno Research) conjugated with Alexa Fluor-488 for 30 minutes also at either pH 6.0 or 7.4. Cells were washed once more and resuspended in matching pH buffer and evaluated by flow cytometry. Antibody cell binding was reported as geometric mean fluorescence intensity (MFI). Dose-response curves were generated using GraphPad Prism. Binding data were plotted using nonlinear regression analysis and a 4-parameter curve fit.

[2] = target: T2, Biotinylated recombinant soluble human …; assay: BLI (Octet): biotinylated CD138 (10 nM) on streptavidin tips, antibody 12.5 and 25 nM, pH 6.0, 1:1 fit
Experimental: (§2) Binding experiments were carried using assay buffer comprised of 100 mM Sodium Phosphate+ 150 mM NaCl + 0.02% Tween-20 and adjusted to target pH of 7.4, 6.0, 6.4, or 6 using appropriate ratios of monobasic and dibasic sodium phosphate buffer. 25 nM biotinylated CD138 was loaded onto Streptavidin capture Octet (SA) tips for 120 seconds (antigen loading step) followed by antibody binding for associated for 300 seconds (association step), and subsequently dissociation for 300 seconds (dissociation step). All steps were carried out at the respective target pH using the corresponding pH adjusted buffers.
(§3) Modifications to this protocol included lowering the loading concentration of biotinylated CD138 from 25 nM to 10 nM and varying the test antibody concentrations ranging from 25 nM down to 0.8 nM (as 2-fold dilutions). The rationale for doing so was to potentially reduce any target avidity effects while also looking at the analyte concentration dependency.
(§4) Data were analyzed for purposes of calculating approximate kinetic binding parameters and apparent binding affinities based on these rates. Data was fit assuming a 1:1 binding model.

[3] = target: T1, CD138 on the surface of U266 cells …; assay: flow cytometry on U266 cells at pH 6.5, MFI against antibody concentration (about 0.03-30 ug/mL)
[4] = target: T3, Recombinant soluble human CD138 …; assay: SPR (Carterra LSA): antibody captured by anti-human IgG, CD138 as analyte, pH 6.0, 1:1 fit; pH 6.0, SPR
Source text: (§5) This method as described, immobilizes the target (recombinant CD138) through biotinylation-streptavidin capture. Such a method may, in principle, lead to biases in binding due to either chemical modification of the capture ligand and/or avidity effects due to immobilization of this ligand on the biosensor. Moreover, this method depends on diffusion-based principles of dissociation leading to non-equilibrium binding states. Surface plasmon resonance is an orthogonal, commonly used method for determining binding kinetics and deriving affinity values based on these parameters. In this method, antibodies were directly coupled to the sensor chip and probed with several concentrations of recombinant CD138 (the antigen) varying from 100 nM to 41 nM. This evaluation was completed under two different pH conditions, i.e., pH 6.0 and pH […].
(§6) Antibody-CD138 binding was evaluated on a Carterra LSA high throughput SPR instrument. Binding experiments were carried out using binding buffer comprising 100 mM sodium phosphate, 150 mM NaCl and 0.05% Tween-20 buffer. Buffers were adjusted to target pH of 7.4 and 6.0, by use of sodium hydroxide or HCL, respectively. All steps were also carried out independently at these respective buffer pHs. Antibodies were captured on the SPR (CMDP) chip using an anti-human IgG covalently coupled to the CMDP chip based on standard protocols, as described by the instrument manufacturer, and to create a uniform lawn on the chip surface at a target 25 nM anti-CD138 antibody concentration. Binding to CD138 was achieved by uniformly passing binding analyte with increasing concentrations of CD138 (41 nM-100 nM) for 15 minutes and allowing dissociation for 20 minutes. Analyte was flowed over the chip at a rate of 2 milliliters/minute. Raw binding data were processed using kinetics data analysis software also provided by the manufacturer (Carterra) following as 2X background subtraction that used the first six injections of buffer blanks and the internal machine reference controls. Kinetic data was analysed using a global fit and assuming a 1:1 binding interaction. Further analysis of individual binding curves (sensorgrams) with best fits were used to refine the calculation of kinetic parameters.

[5] = target: T2, Biotinylated recombinant soluble human …; assay: BLI (Octet): biotinylated CD138 (10 nM) on streptavidin tips, antibody 12.5 and 25 nM, pH 6.0, 1:1 fit; pH 6.0
Experimental: as §2, §3, §4

[6] = target: T1, CD138 on the surface of U266 cells …; assay: flow cytometry on U266 cells at pH 6, MFI against antibody concentration (about 0.03-30 ug/mL)
Experimental: as §1
Binding was evaluated as described.

[7] = target: T3, Recombinant soluble human CD138 …; assay: SPR (Carterra LSA): antibody captured by anti-human IgG, CD138 as analyte, pH 6.0, 1:1 fit
Source text: as §5
Antibody-CD138 binding was evaluated on a Carterra LSA high throughput SPR instrument. Binding experiments were carried out using binding buffer comprising 100 mM sodium phosphate, 150 mM NaCl and 0.05% Tween-20 buffer. Buffers were adjusted to target pH of 7.4 and 6.0, by use of sodium hydroxide or HCL, respectively. All steps were also carried out independently at these respective buffer pHs. […] Kinetic data was analysed using a global fit and assuming a 1:1 binding interaction. […]

[8] = target: T3, Recombinant soluble human CD138 …; assay: SPR (Carterra LSA): antibody captured by anti-human IgG, CD138 as analyte, pH 7.4, 1:1 fit
Source text: as §5, §6

Binder | EC50 (read off the curve) [1] | Kd [2] | koff [2] | kon [2] | Kd [4] | koff [4] | kon [4] | Kd [5] | koff [5] | kon [5] | also measured
Ab175 (antibody, V domains shown, also called mAb Ab175) VH: EVQLVQSGAEVKKPGASVKVSCKASGYSFSSYYMHWVRQAPGQGLEWMGTIHPSDSTTNYNQKFQGRVTMTVDTSTRTAYMELSSLRSEDTAVYYCADFLYWGQGTTVTVSS VL: DIVMTQTPLSLSVTPGQPASISCKSSKSLLYKDGHTYLNWFLQKPGQSPQLLIYVVSTRASGVPDRFSGSGSGTDFTLKISRVEAEDVGVYYCQQLVEYPYTFGQGTKLEIK | ~0.2 µg/mL | – | – | – | – | – | – | – | – | – | –
Antibody Ab30 (antibody, V domains shown) VH: EVQLVQSGAEVKKPGASVKVSCKASGYSFSSYYMHWVRQAPGQGLEWMGTIHPEDSTTNYNQKFQGRVTMTVDTSTRTAYMELSSLRSEDTAVYYCADFVYWGQGTTVTVSS VL: DIVMTQTPLSLSVTPGQPASISCKSSKSLLYKDGKTYLNWFLQKPGQSPQLLIYVVSTRASGVPDRFSGSGSGTDFTLKISRVEAEDVGVYYCQQLVEYPYTFGQGTKLEIK | – | 4.6 nM | 0.0034 s⁻¹ | 720000 M⁻¹ s⁻¹ | – | – | – | – | – | – | –
Antibody Ab28 (antibody, V domains shown, also called Mab 28) VH: EVQLVQSGAEVKKPGASVKVSCKASGYSFSSYYMHWVRQAPGQGLEWMGTIYPGDSTTNYNQKFQGRVTMTVDTSTRTAYMELSSLRSEDTAVYYCADFVYWGQGTTVTVSS VL: DIVMTQTPLSLSVTPGQPASISCKSSKSLLYKDGKTYLNWFLQKPGQSPQLLIYVVSTRASGVPDRFSGSGSGTDFTLKISRVEAEDVGVYYCQQLVEYPYTFGQGTKLEIK | ~0.7 µg/mL | – | – | – | 12 nM | 0.0026 s⁻¹ | 220000 M⁻¹ s⁻¹ | 4 nM | 0.0045 s⁻¹ | 1.2e+06 M⁻¹ s⁻¹ | EC50 (read off the curve) [3]: ~0.8 µg/mL; EC50 (read off the curve) [6]: ~0.5 µg/mL
Antibody Ab17 (antibody, V domains shown, also called mAb 17; Mab 17) VH: EVQLVQSGAEVKKPGASVKVSCKASGYSFSSYYMHWVRQAPGQGLEWMGTIHPSDSTTNYNQKFQGRVTMTVDTSTRTAYMELSSLRSEDTAVYYCADFVYWGQGTTVTVSS VL: DIVMTQTPLSLSVTPGQPASISCKSSKSLLYKDGHTYLNWFLQKPGQSPQLLIYVVSTRASGVPDRFSGSGSGTDFTLKISRVEAEDVGVYYCQQLVEYPYTFGQGTKLEIK | ~0.5 µg/mL | – | – | – | 16 nM | 0.0026 s⁻¹ | 170000 M⁻¹ s⁻¹ | 6.2 nM | 0.0051 s⁻¹ | 860000 M⁻¹ s⁻¹ | –
Antibody Ab32 (antibody, V domains shown) VH: EVQLVQSGAEVKKPGASVKVSCKASGYSFSSYYMHWVRQAPGQGLEWMGTIHPSDSTTNYNQKFQGRVTMTVDTSTRTAYMELSSLRSEDTAVYYCADFLYWGQGTTVTVSS VL: DIVMTQTPLSLSVTPGQPASISCKSSKSLLYKDGKTYLNWFLQKPGQSPQLLIYVVSTRASGVPDRFSGSGSGTDFTLKISRVEAEDVGVYYCQQLVEYPYTFGQGTKLEIK | ~1 µg/mL | 6.4 nM | 0.0036 s⁻¹ | 560000 M⁻¹ s⁻¹ | – | – | – | – | – | – | –

Second part, led by results:

EC50 (read off the curve) [1] | Kd [2] | koff [2] | kon [2] | Kd [4] | koff [4] | kon [4] | Kd [5] | koff [5] | kon [5] | Binder | also measured
– | 0.98 nM | 0.0011 s⁻¹ | 1.2e+06 M⁻¹ s⁻¹ | – | – | – | – | – | – | Antibody Ab71 (antibody, V domains shown) VH: QVQLVQSGAEVKKPGASVKVSCKASGYSFSSYYMHWVRQAPGQGLEWMGDIHPSDSTTNYNQKFQGRVTMTVDTSTRTAYMELSSLRSEDTAVYYCANFVYWGQGTTVTVSS VL: DIVMTQTPLSLSVTPGQPASISCKSSKSLLYKDGKTYLNWFLQKPGQSPQLLIYVVSTRASGVPDRFSGSGSGTDFTLKISRVEAEDVGVYYCQQLVEYPYTFGQGTKLEIK | koff [7]: 0.0018 s⁻¹; kon [7]: 300000 M⁻¹ s⁻¹; Kd [8]: 21 nM; koff [8]: 0.00028 s⁻¹; kon [8]: 10000 M⁻¹ s⁻¹
– | – | – | – | 16 nM | 0.0029 s⁻¹ | 180000 M⁻¹ s⁻¹ | 2.9 nM | 0.003 s⁻¹ | 1e+06 M⁻¹ s⁻¹ | Antibody Ab137 (antibody, V domains shown) VH: QVQLVQSGAEVKKPGASVKVSCKASGYSFSSYYMHWVRQAPGQGLEWMGTIHPSDSTTNYNQKFQGRVTMTVDTSTRTAYMELSSLRSEDTAVYYCANFVYWGQGTTVTVSS VL: DIVMTQTPLSLSVTPGQPASISCKSSKSLLYKDGKTYLNWFLQKPGQSPQLLIDVVSTRASGVPDRFSGSGSGTDFTLKISRVEAEDVGVYYCQQLVEYPYTFGQGTKLEIK | EC50 (read off the curve) [3]: ~0.7 µg/mL; EC50 (read off the curve) [6]: ~0.4 µg/mL
